According to the supplement of paper PMC10065799, “High-throughput profiling of sequence recognition by tyrosine kinases and SH2 domains using bacterial peptide display” (eLife, 2023):

How the values were obtained:
c-Src SH2 = assay: SH2 binding enrichment of the phosphorylated peptide, bacterial display (enrichment ratio); higher = better substrate or ligand; peptides without Tyr show the background
SHP2-C SH2 = assay: as above
Grb2 SH2 = Grb2 SH2 (UniProt P62993); assay: as above
Fer (mouse) = assay: phosphorylation enrichment, bacterial display (enrichment ratio); higher = better substrate or ligand; peptides without Tyr show the background
Fes = Fes (UniProt P07332); assay: as above
Sequence of Fes (P07332 whole entry, looked up): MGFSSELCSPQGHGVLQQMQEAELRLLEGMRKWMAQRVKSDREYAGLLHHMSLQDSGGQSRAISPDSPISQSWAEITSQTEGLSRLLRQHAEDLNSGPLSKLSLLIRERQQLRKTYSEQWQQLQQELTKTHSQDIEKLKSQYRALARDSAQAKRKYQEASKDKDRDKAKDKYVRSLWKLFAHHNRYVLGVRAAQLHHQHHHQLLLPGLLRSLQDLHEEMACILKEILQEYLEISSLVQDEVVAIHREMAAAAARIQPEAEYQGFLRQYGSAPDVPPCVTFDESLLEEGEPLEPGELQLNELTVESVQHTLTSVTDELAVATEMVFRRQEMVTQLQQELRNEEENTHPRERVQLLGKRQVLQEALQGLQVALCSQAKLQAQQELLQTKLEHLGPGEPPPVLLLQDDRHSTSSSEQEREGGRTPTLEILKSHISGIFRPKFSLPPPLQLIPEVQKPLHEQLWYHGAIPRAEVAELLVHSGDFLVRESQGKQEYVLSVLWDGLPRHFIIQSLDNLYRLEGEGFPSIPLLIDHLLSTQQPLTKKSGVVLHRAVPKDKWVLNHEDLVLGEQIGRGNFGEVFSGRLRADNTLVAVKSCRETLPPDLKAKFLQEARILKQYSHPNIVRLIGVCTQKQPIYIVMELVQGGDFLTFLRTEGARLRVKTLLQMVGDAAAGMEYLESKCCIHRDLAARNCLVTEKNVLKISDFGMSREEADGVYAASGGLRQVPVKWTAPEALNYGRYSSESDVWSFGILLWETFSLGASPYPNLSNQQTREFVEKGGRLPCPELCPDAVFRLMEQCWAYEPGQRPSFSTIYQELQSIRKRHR

Jak2 = Jak2 (UniProt O60674); assay: as above
Sequence of Jak2 (O60674 whole entry, looked up): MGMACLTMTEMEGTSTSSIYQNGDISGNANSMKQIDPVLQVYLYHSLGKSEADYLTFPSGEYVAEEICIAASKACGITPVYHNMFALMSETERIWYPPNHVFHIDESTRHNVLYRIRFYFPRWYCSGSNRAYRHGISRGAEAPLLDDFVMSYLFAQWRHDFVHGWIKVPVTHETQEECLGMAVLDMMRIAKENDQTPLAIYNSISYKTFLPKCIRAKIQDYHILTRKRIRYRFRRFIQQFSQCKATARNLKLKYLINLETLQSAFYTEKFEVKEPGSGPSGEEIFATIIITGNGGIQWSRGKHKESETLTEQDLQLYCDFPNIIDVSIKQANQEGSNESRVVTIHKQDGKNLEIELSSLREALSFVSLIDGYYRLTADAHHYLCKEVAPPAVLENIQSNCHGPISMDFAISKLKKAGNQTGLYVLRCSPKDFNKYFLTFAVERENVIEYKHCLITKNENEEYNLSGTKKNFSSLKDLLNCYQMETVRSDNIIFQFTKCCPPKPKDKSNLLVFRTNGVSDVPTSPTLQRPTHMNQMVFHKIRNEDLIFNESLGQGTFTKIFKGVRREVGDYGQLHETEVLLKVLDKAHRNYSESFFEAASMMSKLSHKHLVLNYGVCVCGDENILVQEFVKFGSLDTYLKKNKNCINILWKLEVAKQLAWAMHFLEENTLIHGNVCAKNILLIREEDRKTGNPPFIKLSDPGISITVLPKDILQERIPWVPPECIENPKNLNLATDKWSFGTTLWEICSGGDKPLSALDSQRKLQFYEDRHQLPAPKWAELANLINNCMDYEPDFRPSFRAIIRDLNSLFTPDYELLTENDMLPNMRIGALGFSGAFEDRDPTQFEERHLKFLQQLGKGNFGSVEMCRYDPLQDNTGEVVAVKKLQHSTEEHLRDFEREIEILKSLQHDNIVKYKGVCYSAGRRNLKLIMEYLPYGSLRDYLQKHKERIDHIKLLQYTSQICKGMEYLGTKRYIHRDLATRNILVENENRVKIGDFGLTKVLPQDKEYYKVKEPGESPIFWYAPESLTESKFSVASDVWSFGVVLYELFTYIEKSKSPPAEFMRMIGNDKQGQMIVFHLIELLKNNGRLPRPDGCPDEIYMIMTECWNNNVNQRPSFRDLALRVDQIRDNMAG

FGFR3 = FGFR3 (UniProt P22607); assay: as above
Sequence of FGFR3 (P22607 whole entry, looked up): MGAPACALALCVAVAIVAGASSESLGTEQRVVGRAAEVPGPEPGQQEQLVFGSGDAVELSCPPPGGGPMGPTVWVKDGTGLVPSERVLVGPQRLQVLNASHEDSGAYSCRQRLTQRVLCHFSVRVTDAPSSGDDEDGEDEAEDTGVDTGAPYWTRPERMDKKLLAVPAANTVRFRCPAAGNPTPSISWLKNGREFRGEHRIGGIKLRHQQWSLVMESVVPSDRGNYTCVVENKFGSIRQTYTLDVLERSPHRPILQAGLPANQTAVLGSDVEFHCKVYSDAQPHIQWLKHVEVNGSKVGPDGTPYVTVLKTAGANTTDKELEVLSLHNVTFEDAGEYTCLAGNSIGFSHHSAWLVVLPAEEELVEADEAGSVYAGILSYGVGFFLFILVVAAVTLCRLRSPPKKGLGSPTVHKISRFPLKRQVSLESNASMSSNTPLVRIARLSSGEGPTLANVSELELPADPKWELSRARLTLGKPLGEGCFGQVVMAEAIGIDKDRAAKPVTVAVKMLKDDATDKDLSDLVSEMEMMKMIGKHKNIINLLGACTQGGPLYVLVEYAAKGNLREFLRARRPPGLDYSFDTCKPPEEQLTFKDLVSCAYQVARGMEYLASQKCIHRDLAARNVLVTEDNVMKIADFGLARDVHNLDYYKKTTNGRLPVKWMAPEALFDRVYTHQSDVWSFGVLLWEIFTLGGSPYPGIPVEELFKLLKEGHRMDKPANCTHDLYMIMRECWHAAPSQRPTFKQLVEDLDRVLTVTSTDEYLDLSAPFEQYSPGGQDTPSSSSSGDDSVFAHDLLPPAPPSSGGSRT

Hck = Hck (UniProt P08631); assay: as above
AncSZ = assay: as above
FGFR1 = FGFR1 (UniProt P11362); assay: as above
Sequence of FGFR1 (P11362 whole entry, looked up): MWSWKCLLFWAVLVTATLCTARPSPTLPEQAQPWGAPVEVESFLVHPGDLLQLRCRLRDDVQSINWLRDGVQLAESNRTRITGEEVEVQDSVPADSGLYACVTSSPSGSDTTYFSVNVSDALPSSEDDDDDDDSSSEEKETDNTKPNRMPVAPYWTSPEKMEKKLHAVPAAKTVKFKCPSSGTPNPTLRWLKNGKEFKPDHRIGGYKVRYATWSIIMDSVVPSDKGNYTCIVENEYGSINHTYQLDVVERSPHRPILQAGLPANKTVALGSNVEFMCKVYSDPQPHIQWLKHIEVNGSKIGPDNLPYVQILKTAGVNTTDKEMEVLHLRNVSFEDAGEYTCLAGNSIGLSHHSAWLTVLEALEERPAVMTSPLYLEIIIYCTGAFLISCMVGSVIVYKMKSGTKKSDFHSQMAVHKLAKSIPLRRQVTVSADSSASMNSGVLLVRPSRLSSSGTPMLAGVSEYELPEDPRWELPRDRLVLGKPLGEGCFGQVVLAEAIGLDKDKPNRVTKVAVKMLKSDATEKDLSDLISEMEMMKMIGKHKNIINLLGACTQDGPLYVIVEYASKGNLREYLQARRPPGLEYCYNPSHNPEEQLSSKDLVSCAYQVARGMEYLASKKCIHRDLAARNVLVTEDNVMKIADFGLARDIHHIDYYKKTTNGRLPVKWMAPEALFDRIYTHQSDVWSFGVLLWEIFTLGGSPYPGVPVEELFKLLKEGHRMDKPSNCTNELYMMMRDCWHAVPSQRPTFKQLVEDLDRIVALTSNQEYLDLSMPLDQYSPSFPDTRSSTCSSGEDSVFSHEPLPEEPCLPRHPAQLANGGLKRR

c-Src = assay: as above
Fyn = Fyn (UniProt P06241); assay: as above
c-Abl (mouse) = assay: as above
EPHB2 = EPHB2 (UniProt P29323); assay: as above
EPHB1 = EPHB1 (UniProt P54762); assay: as above
MERTK = MERTK (UniProt Q12866); assay: as above
Sequence of MERTK (Q12866 whole entry, looked up, the tested form may be a part): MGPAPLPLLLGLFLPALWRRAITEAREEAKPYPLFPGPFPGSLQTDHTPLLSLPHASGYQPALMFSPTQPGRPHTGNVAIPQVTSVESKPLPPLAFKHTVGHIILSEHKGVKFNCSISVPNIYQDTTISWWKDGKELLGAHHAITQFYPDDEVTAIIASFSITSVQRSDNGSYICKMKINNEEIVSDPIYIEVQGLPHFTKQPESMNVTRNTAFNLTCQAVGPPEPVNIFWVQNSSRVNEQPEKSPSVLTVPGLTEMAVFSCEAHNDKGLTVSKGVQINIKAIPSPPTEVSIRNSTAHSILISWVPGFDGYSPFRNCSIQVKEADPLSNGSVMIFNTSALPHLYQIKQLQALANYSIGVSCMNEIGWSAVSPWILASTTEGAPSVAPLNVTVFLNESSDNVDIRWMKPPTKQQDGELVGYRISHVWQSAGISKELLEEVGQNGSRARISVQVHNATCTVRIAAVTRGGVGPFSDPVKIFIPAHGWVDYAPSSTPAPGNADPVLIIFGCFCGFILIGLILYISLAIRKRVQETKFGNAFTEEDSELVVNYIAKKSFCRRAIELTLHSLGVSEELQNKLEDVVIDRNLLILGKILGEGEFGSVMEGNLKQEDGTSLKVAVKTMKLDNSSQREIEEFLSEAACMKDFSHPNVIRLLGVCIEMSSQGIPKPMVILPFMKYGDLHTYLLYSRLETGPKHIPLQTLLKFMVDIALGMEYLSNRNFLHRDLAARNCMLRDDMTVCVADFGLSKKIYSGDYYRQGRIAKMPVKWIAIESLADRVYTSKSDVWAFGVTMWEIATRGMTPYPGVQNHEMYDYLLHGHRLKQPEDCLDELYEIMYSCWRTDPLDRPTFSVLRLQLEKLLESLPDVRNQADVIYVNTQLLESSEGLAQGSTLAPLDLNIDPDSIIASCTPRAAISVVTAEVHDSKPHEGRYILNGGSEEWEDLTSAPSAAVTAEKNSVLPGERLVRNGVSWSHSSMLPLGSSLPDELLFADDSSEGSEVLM
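For SH2 binding enrichment of the phosphorylated peptide, bacterial display in this document: peptide library displayed on the E. coli surface as eCPX fusions, selected cells deep-sequenced, score is each peptide's frequency after selection divided by its frequency in the input.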
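For phosphorylation enrichment, bacterial display in this document: 11-residue human phosphosite peptides and single-mutation variants displayed on the E. coli surface, counted by deep sequencing, each peptide's frequency after selection divided by its frequency in the unselected input library; frequency after pTyr selection over input frequency; kinase dosed for 20-30% of maximal phosphorylation in three min.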

Sequence of Grb2 SH2 (P62993 whole entry, looked up): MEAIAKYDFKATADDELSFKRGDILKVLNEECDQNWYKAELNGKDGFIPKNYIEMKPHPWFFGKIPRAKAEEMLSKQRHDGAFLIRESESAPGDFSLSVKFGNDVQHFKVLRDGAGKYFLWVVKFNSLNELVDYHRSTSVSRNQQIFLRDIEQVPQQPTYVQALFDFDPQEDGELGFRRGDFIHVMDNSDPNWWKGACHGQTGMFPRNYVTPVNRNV

| Sequence | SH2 binding enrichment (c-Src SH2) | SH2 binding enrichment (SHP2-C SH2) | SH2 binding enrichment (Grb2 SH2) | phosphorylation enrichment (Fer (mouse)) | phosphorylation enrichment (Fes) | phosphorylation enrichment (Jak2) | phosphorylation enrichment (FGFR3) | phosphorylation enrichment (Hck) | phosphorylation enrichment (AncSZ) | phosphorylation enrichment (FGFR1) | phosphorylation enrichment (c-Src) | phosphorylation enrichment (Fyn) | phosphorylation enrichment (c-Abl (mouse)) | phosphorylation enrichment (EPHB2) | phosphorylation enrichment (EPHB1) | phosphorylation enrichment (MERTK) |
| --- | --- | --- | --- | --- | --- | --- | --- | --- | --- | --- | --- | --- | --- | --- | --- | --- |
| CLAQRYLIWEC [SCN5A_Y694_R689C] | 1.28 | 1.65 | 1.32 | 0.568 | 1.39 | 1.03 | 0.783 | 0.535 | 1.29 | 0.693 | 0.505 | 0.533 | 0.788 | 0.646 | 0.836 | 0.48 |
| VKANTYENFWP [GATM_Y100_K102N_YF] | 2.84 | 1.58 | 12.5 | 2.02 | 1.04 | 0.954 | 0.661 | 2.1 | 0.926 | 0.415 | 4.08 | 3.61 | 0.904 | 2.03 | 3.6 | 3.58 |
| RIGRKYKRVRF [F8_Y442_K444R] | 0.302 | 0.533 | 0.554 | 1.45 | 3.31 | 2.55 | 1.55 | 1.23 | 2.77 | 1.13 | 3.73 | 1.35 | 2.59 | 1.65 | 0.967 | 2.74 |
| QNTGDYCDLFG [PTPN11_Y62_Y63C_YF] | 0.723 | 0.491 | 0.827 | 0.966 | 1.41 | 1.3 | 3.7 | 0.696 | 3.53 | 5.82 | 0.789 | 0.681 | 1.17 | 8.46 | 9.89 | 0.806 |
| PEYVVYKPQME [CCRL2_Y170_F167Y] | 0.439 | 1.05 | 0.913 | 1.09 | 1.29 | 5.75 | 6.08 | 6.69 | 6.34 | 8.3 | 9.4 | 9.13 | 9.5 | 7.28 | 2.97 | 1.14 |
| NTGDYCDLYGG [PTPN11_Y63_Y63C] | 0.988 | 0.747 | 1.01 | 1.48 | 1.16 | 1.04 | 4.75 | 3.78 | 2.71 | 7.05 | 2.91 | 2.26 | 0.877 | 11.3 | 9.45 | 0.838 |
| IKRIAYEFVEM [ADA_Y84] | 0.973 | 0.691 | 0.729 | 2.96 | 0.837 | 0.701 | 0.58 | 0.414 | 0.85 | 0.564 | 0.383 | 0.438 | 0.599 | 0.478 | 0.387 | 0.388 |
| EDASEYFENYI [PARP4_Y214] | 0.498 | 0.675 | 0.933 | 0.51 | 1.21 | 1.15 | 0.83 | 0.597 | 1.62 | 0.84 | 0.539 | 0.613 | 0.658 | 0.66 | 0.549 | 0.527 |
| GIVEDYRPTFY [ACVRL1_Y421_P424T] | 0.763 | 0.657 | 0.875 | 0.373 | 0.866 | 0.661 | 0.648 | 0.475 | 0.83 | 0.441 | 0.347 | 0.513 | 0.899 | 0.484 | 0.561 | 0.404 |
| PSAELYSFALP [PDGFRB_Y716_N718Y_YF] | 0.546 | 0.631 | 0.911 | 17.4 | 1.28 | 1.03 | 5.36 | 6.93 | 2.77 | 6.2 | 7.32 | 7.74 | 1.51 | 11.8 | 10.7 | 13.2 |
| HEEDNYIELIP [NWD2_Y566] | 0.458 | 0.793 | 0.53 | 1.27 | 2.29 | 2.21 | 5.2 | 1.02 | 3.19 | 6.02 | 1.3 | 0.905 | 1.89 | 1.91 | 2.98 | 1.33 |
| VECQVYAEDPY [PCCA_Y401_R399Q] | 0.457 | 0.719 | 0.631 | 0.846 | 1.65 | 1.28 | 1.12 | 0.669 | 1.51 | 0.575 | 1.02 | 0.765 | 0.981 | 0.8 | 0.828 | 0.466 |
| NVGGKYSFLKV [GRM3_Y478_YF] | 0.976 | 1.46 | 1.02 | 0.357 | 0.739 | 0.663 | 0.434 | 0.446 | 0.608 | 0.369 | 0.392 | 0.306 | 0.476 | 0.378 | 0.472 | 0.456 |
| TKDTIYKQPMF [GBA_Y451_F450I] | 0.446 | 1.15 | 0.886 | 0.391 | 0.821 | 0.907 | 0.57 | 0.8 | 0.704 | 0.406 | 0.6 | 0.502 | 17.4 | 0.439 | 0.503 | 0.499 |
| PQAVTYAEVKH [LILRB4_Y360_K362E] | 2.73 | 32.9 | 0.83 | 0.804 | 1.03 | 0.867 | 0.625 | 4.17 | 0.872 | 0.692 | 4.89 | 5.58 | 0.763 | 1.16 | 1.94 | 0.617 |
| LPQDGYRIVQH [PTPRT_Y1329_R1324L] | 0.44 | 0.708 | 0.727 | 0.408 | 0.809 | 0.575 | 0.55 | 0.418 | 0.672 | 0.403 | 0.346 | 0.43 | 0.716 | 0.423 | 0.402 | 0.361 |
| DFPIGYPSFLA [TBCK_Y153_YF] | 0.364 | 0.578 | 0.635 | 0.459 | 1.07 | 0.748 | 0.631 | 0.481 | 0.79 | 0.578 | 0.535 | 0.517 | 0.594 | 0.503 | 0.477 | 0.37 |

| Sequence | SH2 binding enrichment (c-Src SH2) | SH2 binding enrichment (SHP2-C SH2) | SH2 binding enrichment (Grb2 SH2) | phosphorylation enrichment (Fer (mouse)) | phosphorylation enrichment (Fes) | phosphorylation enrichment (Jak2) | phosphorylation enrichment (FGFR3) | phosphorylation enrichment (Hck) | phosphorylation enrichment (AncSZ) | phosphorylation enrichment (FGFR1) | phosphorylation enrichment (c-Src) | phosphorylation enrichment (Fyn) | phosphorylation enrichment (c-Abl (mouse)) | phosphorylation enrichment (EPHB2) | phosphorylation enrichment (EPHB1) | phosphorylation enrichment (MERTK) |
| --- | --- | --- | --- | --- | --- | --- | --- | --- | --- | --- | --- | --- | --- | --- | --- | --- |
| VTRLWYPVCFG [ITK_Y336_R335W] | 0.745 | 0.936 | 1.07 | 0.509 | 1.35 | 1.02 | 1.36 | 0.488 | 1.17 | 1.11 | 0.403 | 0.502 | 0.89 | 0.699 | 0.66 | 0.412 |
| VHKEGYNKLNQ [ZNF676_Y98] | 0.416 | 0.624 | 0.89 | 0.367 | 0.539 | 0.668 | 0.511 | 0.381 | 0.55 | 0.356 | 0.463 | 0.38 | 0.752 | 0.331 | 0.467 | 0.426 |
| IGMIIYFARKA [VCAM1_Y718] | 1.03 | 1.43 | 2.08 | 0.417 | 0.957 | 0.88 | 0.72 | 1.09 | 0.9 | 0.515 | 0.449 | 0.481 | 0.734 | 2.23 | 0.487 | 0.374 |
| SEELHYYVQNH [UQCRC2_Y207_F208Y] | 0.723 | 0.451 | 0.799 | 0.954 | 1.62 | 1.68 | 4.09 | 0.732 | 2.04 | 3.68 | 1.48 | 0.633 | 2.09 | 0.788 | 0.89 | 2.86 |
| SVTCTYSPALD [TP53_Y126_N131D] | 0.599 | 0.532 | 1.01 | 0.821 | 1.76 | 1.51 | 1.01 | 0.656 | 1.74 | 0.616 | 0.745 | 0.641 | 1.24 | 0.816 | 0.882 | 0.466 |
| PYRSIYFSSPK [MPG_Y75] | 0.594 | 1.34 | 0.952 | 0.72 | 0.648 | 0.657 | 0.856 | 1.09 | 0.878 | 0.778 | 0.903 | 1.03 | 0.887 | 0.582 | 0.519 | 0.835 |
| MTYVFYRENLR [NLRP14_Y443] | 0.72 | 1.22 | 1.24 | 0.521 | 1.4 | 1.48 | 0.967 | 1.03 | 1.64 | 0.653 | 1.36 | 0.823 | 0.791 | 0.741 | 1.03 | 0.514 |
| SAPDSYIRIGN [SLC38A4_Y27_G29R] | 0.814 | 0.757 | 0.79 | 0.35 | 0.796 | 0.52 | 0.436 | 0.47 | 0.594 | 0.424 | 0.352 | 0.357 | 0.483 | 0.396 | 0.359 | 0.488 |
| AEMTGYVMTRW [MAPK13_Y182_V184M] | 0.467 | 0.594 | 0.67 | 0.537 | 1.23 | 1.11 | 0.885 | 0.561 | 1.29 | 0.653 | 0.397 | 0.493 | 0.709 | 0.578 | 0.656 | 0.364 |
| CGSLLYGLVHQ [PRKCG_Y122] | 0.519 | 0.908 | 0.987 | 12.9 | 1.2 | 0.673 | 0.663 | 7.19 | 0.889 | 0.545 | 5.57 | 5.73 | 0.664 | 4.64 | 2.22 | 7.41 |
| SAPDSYIGIGN [SLC38A4_Y27] | 0.584 | 0.764 | 0.769 | 0.404 | 0.742 | 0.739 | 0.556 | 0.495 | 0.669 | 0.502 | 0.437 | 0.511 | 0.594 | 0.533 | 0.484 | 0.59 |
| RLSPEYKQNEI [GJB1_Y243] | 0.817 | 0.933 | 0.749 | 0.491 | 0.682 | 0.59 | 0.446 | 0.584 | 0.82 | 0.481 | 0.72 | 0.403 | 0.821 | 0.555 | 0.468 | 0.621 |
| PLKALYLQQRP [ATM_Y2969] | 0.914 | 1.07 | 1.3 | 0.764 | 1.49 | 1.17 | 0.743 | 0.642 | 0.954 | 0.774 | 0.576 | 0.822 | 0.934 | 0.687 | 0.766 | 0.695 |
| NHRNQYQALKP [CLSPN_Y887] | 0.915 | 1.05 | 1.06 | 0.356 | 0.534 | 0.463 | 0.438 | 0.504 | 0.739 | 0.351 | 0.404 | 0.335 | 0.476 | 0.377 | 0.375 | 0.531 |
| KRPAVYIDEEA [EPM2A_Y304] | 0.711 | 0.709 | 0.949 | 0.548 | 1.07 | 0.901 | 0.704 | 0.485 | 1.07 | 0.598 | 0.542 | 0.567 | 0.746 | 0.514 | 0.547 | 0.518 |
| WHHTFYNELCV [ACTC1_Y93_R97C] | 1.2 | 0.767 | 0.86 | 1.04 | 1.23 | 1.03 | 0.979 | 1.18 | 1.19 | 0.881 | 0.73 | 0.574 | 0.761 | 0.658 | 0.793 | 0.905 |
